These results are taken from PMC3282809 (Diabetes, 2012).

This data set deals with the molecule itself. In words: cross-linking + co-IP.

B1: endogenous sorcin (MIN6 β-cells) (natural protein, mouse (endogenous in MIN6), UniProt Q6P069 1-198, looked up)
chain: MAYPGHPGAGGGYYPGGYGGAPGGPAFPGQTQDPLYGYFAAVAGQDGQIDADELQRCLTQSGIAGGYKPFNLETCRLMVSMLDRDMSGTMGFNEFKELWAVLNGWRQHFISFDSDRSGTVDPQELQKALTTMGFRLSPQTVNSVAKRYSTSGKITFDDYIACCVKLRALTDSFRRRDSGQQGVVNFSYDDFIQCVMTV
The term stoichiometry N denotes a count of units in the complex or per binding partner. Consider B1, for which the “stoichiometry N” value is 2.
